Data from patent US20120093719A1 (PROSCAN RX PHARMA, published 2012).

Key:
[1] = molecular target: T1, prostate specific membrane antigen (PSMA) (human, UniProt Q04609 1-750); experiment: ELISA, serially diluted antibody on membrane preparation of PSMA-expressing LNCaP cells against PSMA-negative PC-3
T1 construct: whole, on cells; In the assays PSMA stood as endogenous protein in LNCaP cell membrane preparations (ELISA) or LNCaP lysate (western blot); The background says PSMA forms a noncovalent homodimer
T1 sequence (Q04609 whole entry): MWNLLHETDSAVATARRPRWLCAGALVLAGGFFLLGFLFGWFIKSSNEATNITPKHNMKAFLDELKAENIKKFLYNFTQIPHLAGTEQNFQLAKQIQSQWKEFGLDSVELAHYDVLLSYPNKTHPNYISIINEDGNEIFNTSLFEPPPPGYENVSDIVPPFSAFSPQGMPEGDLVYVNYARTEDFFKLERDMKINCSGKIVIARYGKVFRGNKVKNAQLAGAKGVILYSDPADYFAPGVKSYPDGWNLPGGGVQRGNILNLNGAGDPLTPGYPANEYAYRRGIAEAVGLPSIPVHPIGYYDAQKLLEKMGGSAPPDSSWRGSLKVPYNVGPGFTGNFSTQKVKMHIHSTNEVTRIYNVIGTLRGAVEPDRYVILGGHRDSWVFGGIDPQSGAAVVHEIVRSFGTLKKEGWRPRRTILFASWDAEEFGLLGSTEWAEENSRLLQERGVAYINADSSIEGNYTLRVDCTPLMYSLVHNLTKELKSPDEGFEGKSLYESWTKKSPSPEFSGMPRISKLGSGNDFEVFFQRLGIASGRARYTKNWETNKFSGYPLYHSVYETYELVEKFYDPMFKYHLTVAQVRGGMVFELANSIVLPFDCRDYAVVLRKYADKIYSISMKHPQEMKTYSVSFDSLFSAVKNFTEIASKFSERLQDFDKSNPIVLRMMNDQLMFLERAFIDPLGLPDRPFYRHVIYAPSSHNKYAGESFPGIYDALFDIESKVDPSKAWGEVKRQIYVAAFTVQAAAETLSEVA
Procedure: FIG. 4: immunoreactivity mAb1 to cancer cell line. Serially diluted purified antibody was tested by ELISA on a cell membrane preparation that express PSMA (LNCaP) or not (PC-3). The antibody reacts strongly with the LNCaP preparation while the PC-3 remains unreactive;
Immunoreactivity of mAb1_against cancer cell line was tested by ELISA. Serially diluted purified antibody was tested on a cell membrane preparation that express PSMA (LNCaP) or not (PC-3).

[2] = molecular target: T1, prostate specific membrane antigen …; experiment: ELISA on LNCaP or PC-3 membrane preparation
Procedure: An ELISA assay was used to test the reactivity and specificity of purified chimeric anti-PSMA antibodies. Briefly, 96-well plates (Immulon 2HB) were coated overnight at 4° C. or for 2 h at 37° C. with 100 uL of PBS containing 5 ug of cell membrane preparation. Plates were washed four times with 200 uL of 10 mM Tris-HCl, 150 mM NaCl, and 0.1% Tween-20 (TBST, pH 7.5), and blocked for 1 h with 200 uL of TBST containing 5% FBS. Plates were then washed and incubated for 1 h at room temperature using 100 uL of serially diluted purified chimeric anti-PSMA antibodies in TBST containing 5% FBS. Antibody binding was detected by the sequential addition, followed by washing, of 100 uL of horseradish peroxidase (HRP) conjugated goat anti-human IgG whole molecule (Jackson Immunoresearch) diluted 1:5000 in TBST containing 5% FBS, for 1 h at room temperature, and 100 uL of HRP colorimetric substrate solution 3,3′,5,5′-tetramethylbenzidine (BioFX Laboratories). The reaction was stopped with the addition of 100 uL of 0.5 M sulphuric acid and the absorbance was read at 450 nm in a microplate reader (Bio-Tek Instruments).
The reactivity of the DOTA conjugated antibody (chAb1-DOTA) was compared to the unconjugated antibody (chAb1) by ELISA on a cell membrane preparation that express PSMA (LNCaP) or not (PC-3) (FIG. 14).

[3] = molecular target: T1, prostate specific membrane antigen …; experiment: ELISA after 5 days at 37 C in 0.1M glycine buffered with Tris to pH 7.4

B1: murine monoclonal anti-PSMA antibody mAb1 (antibody, V domains shown)
VH: EVQLQQSGAELVKPGASVKLSCTASGFNIKDTYMHWVKQRPEQGLEWIGGIDPADGETKYDPKFQDKATITTDTSSNTVYLQISSLTSEDTAVYYCVRSFDYWGQGTTLTVSS
VL: DVVMTQTPLSLPVSLGDQASISCRSSQSLVHSNGNTYLHWYLQKPGQSPKFLIYKASNRFSGVPDRFSGRGSGTDFTLKISRVEAEDLGVYFCFQSTHVPYTFGGGTKLEIKR
notes: also called murine anti-PSMA antibody; murine parental antibody
B1: binds [1].

B2: DOTA-conjugated chimeric anti-PSMA antibody chAb1-DOTA (antibody, V domains shown)
VH: EVQLQQSGAELVKPGASVKLSCTASGFNIKDTYMHWVKQRPEQGLEWIGGIDPADGETKYDPKFQDKATITTDTSSNTVYLQISSLTSEDTAVYYCVRSFDYWGQGTTLTVSS
VL: DVVMTQTPLSLPVSLGDQASISCRSSQSLVHSNGNTYLHWYLQKPGQSPKFLIYKASNRFSGVPDRFSGRGSGTDFTLKISRVEAEDLGVYFCFQSTHVPYTFGGGTKLEIKR
modifications: DOTA conjugated through DOTA-NHS ester; sites and chain not stated
notes: also called DOTA conjugated antibody
B2: binds [2].

B3: murine/human chimeric anti-PSMA antibody chAb1 (antibody, human IgG1, kappa, V domains shown)
VH: EVQLQQSGAELVKPGASVKLSCTASGFNIKDTYMHWVKQRPEQGLEWIGGIDPADGETKYDPKFQDKATITTDTSSNTVYLQISSLTSEDTAVYYCVRSFDYWGQGTTLTVSS
VL: DVVMTQTPLSLPVSLGDQASISCRSSQSLVHSNGNTYLHWYLQKPGQSPKFLIYKASNRFSGVPDRFSGRGSGTDFTLKISRVEAEDLGVYFCFQSTHVPYTFGGGTKLEIKR
notes: also called chimeric antibody
B3: binds [3].
